Like-named read-outs stand apart in the source and are kept apart here.
B1: r Phl p 5b: recombinant wild type Phl p 5b, 265 amino acids, SEQ ID NO 87 (protein)
chain: ADAGYAPATPAAAGAAAGKATTEEQKLIEDINVGFKAAVAAAASVPAADKFKTFEAAFTSSSKAAAAKAPGLVPKLDAAYSVAYKAAVGATPEAKFDSFVASLTEALRVIAGALEVHAVKPVTEEPGMAKIPAGELQIIDKIDAAFKVAATAAATAPADDKFTVFEAAFNKAIKESTGGAYDTYKCIPSLEAAVKQAYAATVAAAPQVKYAVFEAALTKAITAMSEVQKVSQPATGAATVAAGAATTAAGAASGAATVAAGGYKV
B2: n Phl p 5b: purified natural allergen Phl p 5b of timothy grass (Phleum pratense), reference of the EAST inhibition (protein)
chain: ADAGYAPATPAAAGAAAGKATTEEQKLIEDINVGFKAAVAAAASVPAADKFKTFEAAFTSSSKAAAAKAPGLVPKLDAAYSVAYKAAVGATPEAKFDSFVASLTEALRVIAGALEVHAVKPVTEEPGMAKIPAGELQIIDKIDAAFKVAATAAATAPADDKFTVFEAAFNKAIKESTGGAYDTYKCIPSLEAAVKQAYAATVAAAPQVKYAVFEAALTKAITAMSEVQKVSQPATGAATVAAGAATTAAGAASGAATVAAGGYKV

Tests used:
[1] = test system: Phl p 5b-reactive T cell lines (TCLs) from allergic patients; assay: Proliferative reaction of Phl p 5b-reactive oligoclonal T cell lines ([3H]-thymidine incorporation); type: cell-based, human; settings: secondary activator 0.3 μM
Experimental: In the second phase, oligoclonal T cell lines, which have been established by repeated stimulation with the relevant allergens, are employed for the testing. Once again, only those modified recombinant allergens which at least give rise to a stimulation index (SI) of 50% of the SI of the wild type are taken into consideration.
(§1) 40 ml of heparinized blood were obtained from each patient. Peripheral mononuclear cells (PBMC) were then isolated from this blood sample by means of the customary method using density gradient centrifugation. Analogous cell isolations were carried out at a later stage when it was necessary to obtain irradiated autologous antigen-presenting cells (APC) for characterizing the TCL and TCC further. After the PBMC had been counted, TCL which reacted to group 5 allergens in vitro were established as follows and as has already been described in detail elsewhere (Lit. 1): in each well of 24-well microculture plates, from 1.5 to 2.0×10^6 PBMC in 1 ml of culture medium (UltraCulture) were stimulated for 7 days in the added presence of natural Phl p5 allergens (in each case 10 μg/well) which had been purified by immunoaffinity chromatography. A total of from 8 to 10 of these cultures were set up. The isolation of Phl p5 by means of immunoaffinity chromatography has been described in detail (Lit. 2). At the end of the 7 days of culture, IL-2 (from 10 to 20 IU/well) was added to the cell cultures for a further 5 to 7 days. All the individual cultures were then pooled and the T cell blasts were enriched by means of density gradient centrifugation; the TCL which were obtained were then tested in a specific lymphocyte proliferation test (see Lit. 1 as well). For this, 2×10^4/ml TCL blasts were in each case cultured with 5×10^4/ml irradiated autologous APCs in triplicate samples in 96-well microculture plates. 10-20 μg of Phl p5 allergen were added as the specific antigen stimulus. After 56 hours of incubation, ^3H-labelled thymidine (1 μCi/well) was pipetted into the microcultures. After a further 16 hours, the radioactivity which had been incorporated into the proliferating T cell blasts was measured in a beta counter (Matrix 96). The results were calculated, as the arithmetic mean of the multiple samples, in counts per minute (cpm). The criterion for the quality of the TCL was the stimulation index, which was obtained by relating the cpm values with Phl p5 addition to those without Phl p5 addition.
The oligoclonal T cell lines (TCLs) from 8 patients who were allergic to grass pollen (see Ex. 1) were established by repeated activation with natural Ph1 p 5b (a+b) or recombinant rPh1 p 5b or 5a+5b.
The proliferative reaction of these TCLs was tested using the rPh1 p 5b mutants (FIG. 10).

[2] = test system: Phl p 5b-reactive T cell clones (TCCs) from allergic patients; assay: Proliferative reaction of Phl p 5b-reactive T cell clones ([3H]-thymidine incorporation); type: cell-based, human; settings: final concentration 0.3 μM
Experimental: as §1
After a TCL had been cloned (see below), the specificity of the isolated TCCs were determined as has just been described. Stimulation indices of at least 5 were rated as being positive for the TCCs. The determination of T cell epitopes for defining the T cell-reactive regions on group 5 allergens was also carried out using specific proliferation tests, with 1-2 μg of synthesized dodecapeptide/ml being used for this purpose in each case (see below).
The reactivity of the recombinant Ph1 p 5b mutants was tested on established T cell clones (TCCs) of known specificity. The TCCs derive from patients who are allergic to grass pollen (see Ex. 1) and are directed against the T cell-reactive regions A (FIG. 7), B (FIG. 8) and C (FIG. 9). The T cell reactivity was measured by stimulating the clones to proliferate.

[3] = test system: IgE antibodies of allergic patients; assay: EAST inhibition test (IgE reactivity / allergenicity); type: binding, human; settings: for IC50: read-out: Inhibition value 50% (concentration of the inhibitor at 50% inhibition); for Allergenic potency (Prel) 25%: relative to native Phl p 5b at 25% inhibition; for Allergenic potency (Prel) 50%: relative to native Phl p 5b at 50% inhibition
Experimental: The effects of the induced mutations on the allergenicity, i.e. the ability to bind to the IgE antibodies of allergic patients, of the modified recombinant allergens is determined qualitatively and quantitatively by means of the EAST inhibition test. […] The extent of the immunochemical relatedness (cross reactivity) can also be quantified. This EAST inhibition test only takes the reaction with IgE antibodies into account.
The binding of the allergens by the IgE antibodies is the basic prerequisite for the allergen-specific activation of the effector cells (mast cells, basophils, inter alia) in type I allergy. The allergen-specific inhibition of the enzyme/allergen sorbent test (EAST) is the best means for qualitatively and quantitatively recording the binding of the allergens to IgE anti-bodies. The EAST inhibition test is carried out as follows. Microtitre plates are coated with allergen (natural or recombinant Ph1 p 5 or Ph1 p 5b) (1 μg/ml). After the unbound allergen molecules have been removed by washing, non-specific plastic binding sites are blocked with bovine serum albumin (0.5%). […] from allergic patients, as a representative pool of 10-30 donors or as an individual serum, is incubated, in a suitable dilution, with the allergen-coated microtritre plates. The bound allergen-specific IgE antibodies are quantified using enzyme-coupled anti-IgE antibodies (e.g. alk. phosphatase-a-IgE antibodies). This binding is inhibited by soluble allergen or the substance to be tested (allergen mutants) in dependence on the concentration. The inhibition curve obtained with the purified natural allergen Ph1 p 5b is used as the reference.

[4] = allergic patient serum pool Bor 18/100
[5] = allergic patient serum pool We 6/97
[6] = individual allergic patient serum II/3
[7] = individual allergic patient serum II/12
[8] = individual allergic patient serum II/17

Row | Molecule | Inhibition value 25% (concentration of the inhibitor at 25% inhibition) [3, 4] [mol/L] | IC50 [3, 4] [nM] | Inhibition value 25% (concentration of the inhibitor at 25% inhibition) [3, 5] [mol/L] | IC50 [3, 5] [nM] | Inhibition value 25% (concentration of the inhibitor at 25% inhibition) [3, 6] [mol/L] | IC50 [3, 6] [nM] | Inhibition value 25% (concentration of the inhibitor at 25% inhibition) [3, 7] [mol/L] | IC50 [3, 7] [nM] | Inhibition value 25% (concentration of the inhibitor at 25% inhibition) [3, 8] [mol/L] | IC50 [3, 8] [nM] | Allergenic potency (Prel) 25% ([3]; individual serum II/3) | Allergenic potency (Prel) 25% ([3]; individual serum II/12) | Allergenic potency (Prel) 25% ([3]; individual serum II/17) | Allergenic potency (Prel) 25% ([3]; serum pool Bor 18/100) | Allergenic potency (Prel) 25% ([3]; serum pool We 6/97) | Allergenic potency (Prel) 50% ([3]; individual serum II/3) | Allergenic potency (Prel) 50% ([3]; individual serum II/12) | Allergenic potency (Prel) 50% ([3]; individual serum II/17) | Allergenic potency (Prel) 50% ([3]; serum pool Bor 18/100) | Allergenic potency (Prel) 50% ([3]; serum pool We 6/97) | other results
1 | B1 | 2e-10 | 5 | 3e-10 | 1400 | 5.6e-10 | 14 | 8.7e-10 | 73 | 2.1e-10 | 4.7 | 0.9030 | 0.597 | 1.045 | 1.709 | 1.697 | 0.4190 | 0.093 | 0.5450 | 0.8410 | 0.4400 | Incorporation of [3H]-thymidine into TCL 1 Wöl (stimulation index class) ([1]; primary stimulator n Phl p 5): + (1-2 (+)); Incorporation of [3H]-thymidine into TCL 2 Eic (stimulation index class) ([1]; primary stimulator n Phl p 5): + (1-2 (+)); Incorporation of [3H]-thymidine into TCL 3 Fre (stimulation index class) ([1]; primary stimulator n Phl p 5): + (1-2 (+)); Incorporation of [3H]-thymidine into TCL 4 Mer (stimulation index class) ([1]; primary stimulator n Phl p 5): + (1-2 (+)); Incorporation of [3H]-thymidine into TCL 5 17.4 (stimulation index class) ([1]; primary stimulator r Phl p 5): + (1-2 (+)); Incorporation of [3H]-thymidine into TCL 6 Mah (stimulation index class) ([1]; primary stimulator r Phl p 5a, r Phl p 5b): +++ (>10 (+++)); Incorporation of [3H]-thymidine into TCL 7 19.2 (stimulation index class) ([1]; primary stimulator r Phl p 5b): +++ (>10 (+++)); Incorporation of [3H]-thymidine into TCL 8 20.1 (stimulation index class) ([1]; primary stimulator r Phl p 5b): +++ (>10 (+++)); Incorporation of [3H]-thymidine into TCC CB 2 (stimulation index class) ([2]; T cell-reactive region A): +++ (>10 (+++)); Incorporation of [3H]-thymidine into TCC CB 14 (stimulation index class) ([2]; T cell-reactive region A): +++ (>10 (+++)); Incorporation of [3H]-thymidine into TCC JR 13 (stimulation index class) ([2]; T cell-reactive region A): +++ (>10 (+++)); Incorporation of [3H]-thymidine into TCC JR 15 (stimulation index class) ([2]; T cell-reactive region A): +++ (>10 (+++)); Incorporation of [3H]-thymidine into TCC DW8 (stimulation index class) ([2]; T cell-reactive region B): + (1-2 (+)); Incorporation of [3H]-thymidine into TCC UZH2 (stimulation index class) ([2]; T cell-reactive region B): +++ (>10 (+++)); Incorporation of [3H]-thymidine, stimulation index SI, 1st exp. ([2]; T cell-reactive region C): 11.0; Incorporation of [3H]-thymidine, stimulation index SI, 2nd exp. ([2]; T cell-reactive region C): 7.0; Incorporation of [3H]-thymidine, stimulation index SI, 3rd exp. ([2]; T cell-reactive region C): 5.5; Incorporation of [3H]-thymidine, stimulation index class (last column, no head) ([2]; T cell-reactive region C): ++ (5-10 (++)); EAST inhibition curve / inhibitory effect (in words) ([3]; serum pool Bor 18/100 (20 donors), FIG. 1): binding curves which are similar to that obtained with natural Ph1 p 5b
2 | B2 | 3.3e-10 | 4.2 | 5.1e-10 | 6.1 | 5.1e-10 | 5.9 | 5.2e-10 | 6.8 | 2.2e-10 | 2.6 | 1.000 | 1.000 | 1.000 | 1.000 | 1.000 | 1.000 | 1.000 | 1.000 | 1.000 | 1.000 | –

Source: patent publication US6919086B1, “Graminae pollen allergen mutants for specific immunotherapy, and production and use of the same” (Merck Patent Gesellschaft mit, priority 1997, dated 2005)
